{"source": "patent US11357817B2", "about": "“Immunoproteasome inhibitor” (The Regents of the University of California, priority 2017, dated 2022)", "key": {"[1]": {"biological_target": "Succinyl-Leu-Leu-Val-Tyr-aminocoumarin (Artificial Sequence)"}, "[2]": {"biological_target": "z-LRR-AMC"}, "[3]": {"biological_target": "z-LLE-AMC"}, "[4]": {"biological_target": "20S Plasmodium proteasome (Pf20S), enriched from P. falciparum schizont lysate (Plasmodium falciparum)", "assay": "inactivation kinetics of Pf20S, Suc-LLVY-AMC activity assay, non-linear regression of Kobs"}, "[5]": {"biological_target": "human constitutive 20S proteasome (human)", "assay": "inactivation kinetics of c20S, Suc-LLVY-AMC activity assay, non-linear regression of Kobs"}, "[6]": {"biological_target": "β5 subunit of the S. cerevisiae 20S proteasome (PRE2), wild type (Saccharomyces cerevisiae)"}, "[7]": {"biological_target": "β5 subunit of the S. cerevisiae 20S proteasome (PRE2) with M45I (M120I in the pro-protein), lineage 2 (Saccharomyces cerevisiae)"}, "[8]": {"biological_target": "20S Plasmodium proteasome (Pf20S), enriched from P. falciparum schizont lysate (Plasmodium falciparum)"}, "[9]": {"biological_target": "human constitutive 20S proteasome (human)"}, "[10]": {"biological_target": "20S Plasmodium proteasome (Pf20S), enriched from P. falciparum schizont lysate (Plasmodium falciparum)", "remark": "listed apart in the source"}, "[11]": {"biological_target": "human constitutive 20S proteasome (human)", "remark": "listed apart in the source"}, "[12]": {"tested_on": "20S Plasmodium proteasome (Pf20S) β2 subunit", "assay": "Proteasome activity assay, Pf20S β2 (z-LRR-AMC)", "format": "biochemical", "settings": "150 nM inhibitor", "method": "(§1) Asynchronous P. falciparum cultures were grown up to 4-5% parasitemia, in 300 mL of RPMI media at 5.0% hematocrit. […] The PBS was removed and lysis buffer (0.15% saponin in PBS) was added on ice in 10 pellet volumes. Upon lysis of red blood cells, indicated by a clear red supernatant, the lysed cultures were centrifuged at 3200×g for 12 minutes at 4° C. The supernatant was removed by aspiration and the cells were washed twice using chilled PBS in microcentrifuge tubes. The cell pellets were then incubated on ice for 1 hour with occasional vortexing in a buffer consisting of 20 mM Tris-HCl pH 7.5, 5 mM MgCl2, 1 mM DTT, 100 μM E-64 and 1 mM AEBSF. This sample was then subjected to 3 rounds of freezing (−80° C.) and thawing (37° C.) and centrifugation at 6000×g for 10 min. The supernatant containing soluble P. falciparum protein was quantified by the BCA method (Pierce).\n(§2) P. falciparum proteasome was enriched by two-chromatographic steps reported previously (10). […] The AMC fluorophore release was monitored at Ex 340/Em 465 nm at 24° C. using a Synergy HTX multi-mode reader (Biotek). […] Proteins were eluted using 20 mM Tris-HCl pH 7.5, 100 mM NaCl, 10% glycerol and 1 mL fractions were collected, evaluated for protease activity and pooled. […]"}, "[13]": {"tested_on": "20S Plasmodium proteasome (Pf20S) β5 subunit", "assay": "Proteasome activity assay, Pf20S β5 (suc-LLVY-AMC)", "format": "biochemical, Plasmodium falciparum", "settings": "150 nM inhibitor", "method": "Asynchronous P. falciparum cultures were grown up to 4-5% parasitemia, in 300 mL of RPMI media at 5.0% hematocrit. Cultures were then transferred to 50 mL conical tubes, pelleted via centrifugation at 800 g for 5 min, and washed once with 1×PBS and pelleted again as above. The PBS was removed and lysis buffer (0.15% saponin in PBS) was added on ice in 10 pellet volumes. Upon lysis of red blood cells, indicated by a clear red supernatant, the lysed cultures were centrifuged at 3200×g for 12 minutes at 4° C. The supernatant was removed by aspiration and the cells were washed twice using chilled PBS in microcentrifuge tubes. The cell pellets were then incubated on ice for 1 hour with occasional vortexing in a buffer consisting of 20 mM Tris-HCl pH 7.5, 5 mM MgCl2, 1 mM DTT, 100 μM E-64 and 1 mM AEBSF. This sample was then subjected to 3 rounds of freezing (−80° C.) and thawing (37° C.) and centrifugation at 6000×g for 10 min. The supernatant containing soluble P. falciparum protein was quantified by the BCA method (Pierce).\nP. falciparum proteasome was enriched by two-chromatographic steps reported previously (10). In brief, 10 mg of P. falciparum protein was concentrated to 1 mL using a 100 kDa centrifugal filter unit (Amicon) and loaded onto a 5 mL anion exchange HiTrap DEAE FF column (GE Healthcare). […] The AMC fluorophore release was monitored at Ex 340/Em 465 nm at 24° C. using a Synergy HTX multi-mode reader (Biotek). […] Proteins were eluted using 20 mM Tris-HCl pH 7.5, 100 mM NaCl, 10% glycerol and 1 mL fractions were collected, evaluated for protease activity and pooled.\nTo estimate the concentration of Pf20S in the final pooled sample, protein was denatured and loaded into a 4-12% Bis-Tris Plus gel (Thermo Fisher Scientific) beside 60 to 100 ng of human constitutive proteasome (Boston Biochem). […] For inhibition assays, inhibitor and substrate were added simultaneously to the enzyme and the rate of AMC release was determined from 60 to 120 minutes and compared to a DMSO control."}, "[14]": {"tested_on": "Dd2 parasites", "assay": "Artemisinin synergy, 72 hour SYBR green assay with co-treatment", "format": "cell-based, Plasmodium falciparum", "method": "Compound susceptibility was measured using the malaria SYBR Green I-based fluorescence assay (32). Asynchronous P. falciparum parasites (Dd2 strain) were cultured in standard conditions before being plated for the assays. Each compound was tested over 72 hours in technical duplicates on a twelve-point concentration curve prepared by three-fold dilution from 6.7 μM to 0.11 nM. At least three independent experiments were carried out for IC50 determination. Artemisinin and chloroquine were used as controls. IC50 values were obtained using normalized fluorescence intensity from SYBR green I and analyzed via non-linear variable slope four-parameter regression curve-fitting model in Prism 6 (GraphPad Software Inc)."}, "[15]": {"tested_on": "20S Plasmodium proteasome (Pf20S) β1 subunit", "assay": "Proteasome activity assay, Pf20S β1 (z-LLE-AMC)", "format": "biochemical, Plasmodium falciparum", "settings": "150 nM inhibitor", "method": "as §1, §2"}, "[16]": {"biological_target": "Pf20S (Plasmodium falciparum, UniProt A0A5K1K7U1+Q8IJT1)", "assay": "Calculation of inhibition constants (inactivation kinetics), Pf20S", "format": "biochemical", "settings": "Pf20S", "method": "(§3) The rate of AMC release was calculated in the presence of serial dilution of each inhibitor. The rate of product formation were calculated at 30 min intervals for 4 hours, and normalized to activity DMSO control to calculate inactivation curves. Kobs values for each inhibitor concentration were calculated from inactivation curves, and inhibition constants KI and kinact were calculated by non-linear regression of Kobs and inhibitor concentration using GraphPad Prism 6 software."}, "[17]": {"tested_on": "ABC16-Monster yeast cells", "assay": "microbe, parasite or virus in culture", "format": "cell-based, S. cerevisiae", "settings": "Saccharomyces cerevisiae", "method": "ABC16-Monster yeast cells (15) were inoculated into 5 ml of liquid YPD media and grown to saturation (OD600>1.0) overnight at 200 RPM in a shaking incubator at 30° C. Cultures were diluted to OD600 0.005 to log phase. 100 μl of yeast cells were added to a 96-well plate and incubated with compound starting with a concentration of 150 μM, followed by 1:2 serial dilutions. An initial reading of OD600 (t=0 hrs) was recorded using a Synergy HT spectrophotometer, and cells were grown for a period of 18 hours at 30° C. After incubation, plates were read at OD600. Cells grown in the absence of compound were used as a negative control. Percent growth was calculated using the formula Ab600treated/Ab600control×100\nIC50 values were determined by first subtracting the OD600 values at t=0 from those of the final reading and then using Graphpad Prism to calculate nonlinear regression on log(inhibitor) vs. response with variable slope (four parameters).\nEach selection was cultured under vigorous shaking until the culture reached saturation. […] Single colonies were isolated, and IC50 assays were performed to determine the degree of evolved resistance vs. that of the parental strain."}, "[18]": {"biological_target": "T1, c20S (Homo sapiens, UniProt P20618+P28074)", "T1 construct": "purchased Boston Biochem", "assay": "Calculation of inhibition constants (inactivation kinetics), c20S", "format": "biochemical", "settings": "c20S", "method": "as §3"}}}
{"compound": "20S Plasmodium proteasome (Pf20S), enriched from P. falciparum schizont lysate (enzyme)", "values": [{"measurement": "hydrolysis of suc-LLVY-AMC (AMC release) (fold of the c20S rate)", "setting": "[1]", "result": "< 2"}, {"measurement": "hydrolysis of z-LRR-AMC (AMC release) (fold of the c20S rate)", "setting": "[2]", "result": "< 2"}, {"measurement": "hydrolysis of z-LLE-AMC (AMC release) (fold lower than c20S)", "setting": "[3]", "result": 19}]}
{"compound": "Carmaphycin B (peptide)", "values": [{"measurement": "Ki", "setting": "[4]", "result": 0.223, "unit": "µM"}, {"measurement": "Ki", "setting": "[5]", "result": 0.375, "unit": "µM"}, {"measurement": "average IC50 (uM) of yeast growth, parental GM strain", "setting": "[6]", "result": 24.3, "unit": "µM"}, {"measurement": "average IC50 (uM) of yeast growth, resistant lineage 2", "setting": "[7]", "result": 52.7, "unit": "µM"}, {"measurement": "inhibition of β5, β1 and β2 activity at 150 nM inhibitor (% reduction of β5 activity)", "setting": "[8]", "result": 45}, {"measurement": "inhibition of β5, β1 and β2 activity at 150 nM inhibitor (% inhibition of β5 activity)", "setting": "[9]", "result": 98}, {"measurement": "Kinact", "setting": "[10]", "result": 0.000192, "unit": "s⁻¹"}, {"measurement": "Kinact/KI", "setting": "[10]", "result": 864, "unit": "M⁻¹ s⁻¹"}, {"measurement": "Kinact", "setting": "[11]", "result": 0.00168, "unit": "s⁻¹"}, {"measurement": "Kinact/KI", "setting": "[11]", "result": 4480, "unit": "M⁻¹ s⁻¹"}]}
{"compound": "CCCCCC(=O)N[C@H](C(=O)N[C@@H](CCS(C)(=O)=O)C(=O)N[C@@H](CC(C)C)C(=O)[C@@]1(C)CO1)C(C)C", "note": "[Carmaphycin B]", "values": [{"measurement": "Pf20S β2 activity reduced", "setting": "[12]", "result": 29, "unit": "%"}, {"measurement": "Pf20S β5 activity reduced", "setting": "[13]", "result": 45, "unit": "%"}, {"measurement": "sensitization to ART", "setting": "[14]; co-treatment with ART and 0.5 nM of the compound", "result": 2, "unit": "fold"}, {"measurement": "sensitization to ART", "setting": "[14]; co-treatment with ART and 1 nM of the compound", "result": 3, "unit": "fold"}, {"measurement": "Pf20S β1 activity reduced", "setting": "[15]", "result": 16, "unit": "%"}, {"measurement": "Ki", "setting": "[16]", "result": 0.223, "unit": "µM"}, {"measurement": "IC50", "setting": "[17]; GM (parental ABC16-Monster strain)", "result": 24.3, "unit": "µM"}, {"measurement": "IC50", "setting": "[17]; resistant Lineage 1", "result": "> 150", "unit": "µM"}, {"measurement": "IC50", "setting": "[17]; resistant Lineage 2", "result": 52.7, "unit": "µM"}, {"measurement": "IC50", "setting": "[17]; resistant Lineage 3", "result": "> 100", "unit": "µM"}, {"measurement": "Ki", "setting": "[18]", "result": 0.375, "unit": "µM"}]}
